# According to US20260167677A1, “ANTI-ADAM10 ANTIBODIES AND USES IN TREATMENT OF CANCER” (Memorial Sloan Kettering Cancer Center, priority 2022, published 2026):
# Test system: human APP
# Assay: Western blot of APP shedding in U2OS cells transfected with human APP
# Assay type: cell-based
# Settings: 31 nM to 1 μM
# Procedure: U2OS cells transiently transfected with human APP releases the extracellular portion of APP to the media.
# The release of sAPPα in the presence of varying concentrations of IHigG/Fab (31 nM to 1 μM) was evaluated using Western blotting. The Western blots were quantitated using the software Image J and glyceraldehyde 3-phosphate dehydrogenase (GAPDH) as loading control. A vector control was included and U20S cells transfected with APP, but untreated, was used to calculate the fold increase in shedding.
molecule,measurement,value
1H5 Fab: Fab fragment of fully human anti-ADAM10 antibody 1H5 (antibody) heavy: QVQLVESGGGLVKPGGSLRLSCAASGFTFSDYYMSWIRQAPGKGLEWVSYISSSGSTIYYADSVKGRFTISRDNAKNSLYLQMNSLRAEDTAVYYCARDFYDSKIFDYWGQGTLVTVSSASTKGPSVFPLAPSSKSTSGGTAALGCLVKDYFPEPVTVSWNSGALTSGVHTFPAVLQSSGLYSLSSVVTVPSSSLGTQTYICNVNHKPSNTKVDKKVEPKSCDKT light: DIQMTQSPSSLSASVGDRVTITCRASQSISSYLNWYQQKPGKAPKLLIYAASSLQSGVPSRFSGSGSGTDFTLTISSLQPEDVGVYYCMEGLKTPFTFGPGTKLEIKRTVAAPSVFIFPPSDEQLKSGTASVVCLLNNFYPREAKVQWKVDNALQSGNSQESVTEQDSKDSTYSLSSTLTLSKADYEKHKVYACEVTHQGLSSPVTKSFNRGEC,sAPPα shedding,increase
